In data set [1] the target is Concanavalin A (Con A) internal_change (UniProt P02866). Kind of data set: particle flow cytometry. Conditions: after the 20-nt 5' primer: every T = mannose-clicked C8-alkyne-dU (4), binding buffer, salt, pH and temperature not given in the material (hemagglutination: 30 min preincubation at RT).
Data set [2] shares this target. Description: BLI. Particulars: after the 20-nt 5' primer: every T = mannose-clicked C8-alkyne-dU (4), binding buffer, salt, pH and temperature not given in the material (hemagglutination: 30 min preincubation at RT).
The mark [3] stands for this setting: every C = 5-formyl-dC (2), primer unmodified.

In publication PMC6929039 one finds Kd data, which are given here for two sequences.

Values joined by “and” are separate entries in the source; they are usually repeats but may differ in a detail not shown here. Equal entries are not always repeated.

What is called Kd is the free concentration of one partner at which half of the binding sites on the other are occupied at equilibrium, for simple one-to-one binding. As to “GATCCCAGTCCGAAGTAATCGTTGCATCTGCACGACTGGTGAGCTTGAGTGGCAGAAGAACTTGTGCAAACGGCTATAGG [ConA-3-1]”, the Kd in data set [1] (setting [3]) was 20 nM; in data set [2] (setting [3]), 5.8 nM.

Take “GATCCCAGTCCGAAGTAATCGTTGCATCTGCACGACTGGTGAGCTTGAGTGGCAGAAGAACTTGTGCAAACGGCTATAGG [ConA-3-1m]”: the dissociation constant Kd is 17 nM in data set [1] (C natural); 3.2 nM and 5.3 nM in data set [2] (C natural).
